Data published in US20260167959A1, “APTAZYME-BASED REGULATABLE GENE EXPRESSION SYSTEMS” (REJUVENATE BIO INC, priority 2022, published 2026).
Residue numbers refer to the chain shown, from its start.

B1: RA063 (nucleic acid)
DNA: GCGCGTCCTGGATTCAGTGATACCAGCATCGTCTTGATGCCCTTGGCAGCACTGCGGAAACGCGTACATCCAGCTGACGAGTCCCAAATAGGACGAAACGCGC
modifications: expressed or natural sequence
B2: RA064 (nucleic acid)
DNA: GCGCGTCCTGGATTCGCGGAAACGCGTACAGAATACCAGCATCGTCTTGATGCCCTTGGAAGTCTATCCAGCTGACGAGTCCCAAATAGGACGAAACGCGC
modifications: expressed or natural sequence
B3: RA065 (nucleic acid)
DNA: GCTGTCACCGGAATACCAGCATCGTCTTGATGCCCTTGGAAGTCCGGTCTGATGAGTCCCAGAAGGACGAAACAGC
modifications: expressed or natural sequence
B4: RA066 (nucleic acid)
DNA: GCGCGTCCTGGATTCGCGGAAAGAATACCAGCATCGTCTTGATGCCCTTGGAAGTCTACGCGTACATCCAGCTGACGAGTCCCAAATAGGACGAAACGCGC
modifications: expressed or natural sequence
B5: RA067 (nucleic acid)
DNA: GCGCGTCCTGGATTCGCGGAAACGCGTACATCCAGTGATACCAGCATCGTCTTGATGCCCTTGGCAGCACTAGCTGACGAGTCCCAAATAGGACGAAACGCGC
modifications: expressed or natural sequence
B6: RA006 (nucleic acid)
DNA: GCGCGTCCTGGATTCGCGGAAACGCGTACATCCAGCTGACGAGTCCCAAATAGGACGAAACGAGTGATACCAGCATCGTCTTGATGCCCTTGGCAGCACTCGC
modifications: expressed or natural sequence
B7: RA068 (nucleic acid)
DNA: GCGCGTCCTGGATTCGCCCGGAATACCAGCATCGTCTTGATGCCCTTGGAAGTCCGGGGAAACGCGTACATCCAGCTGACGAGTCCCAAATAGGACGAAACGCGC
modifications: expressed or natural sequence
B8: RA069 (nucleic acid)
DNA: GCGCGTCCTGGATTCGCGGAAACGCGTACATCCAGCTGACGAGTCCCGGAATACCAGCATCGTCTTGATGCCCTTGGAAGTCCAAATAGGACGAAACGCGC
modifications: expressed or natural sequence
B9: RA070 (nucleic acid)
DNA: GCGCGTCCTGGATTCGCGGAAACGCGTACATCCAGCTGAGTGATACCAGCATCGTCTTGATGCCCTTGGCAGCACTACGAGTCCCAAATAGGACGAAACGCGC
modifications: expressed or natural sequence
B10: RA071 (nucleic acid)
DNA: B6 DNA with A63C, T65G, G66A, C94A, C97T, A98C, T100G
modifications: expressed or natural sequence
B11: RA072 (nucleic acid)
DNA: GCGCGTCCTGGATTCGCGGAAACGCGTACCGAGAATACCAGCATCGTCTTGATGCCCTTGGAAGTCTCGATCCAGCTGACGAGTCCCAAATAGGACGAAACGCGC
modifications: expressed or natural sequence
B12: RA073 (nucleic acid)
DNA: GCGCGTCCTGGATTCGCGGAAACGCGTACACGGAATACCAGCATCGTCTTGATGCCCTTGGAAGTCCGTCCAGCTGACGAGTCCCAAATAGGACGAAACGCGC
modifications: expressed or natural sequence
B13: RA074 (nucleic acid)
DNA: GCGCGTCCTGGATTCGCGGAAACGCGTACATCCAGCTGACGAGTCAGAATACCAGCATCGTCTTGATGCCCTTGGAAGTCTCCAAATAGGACGAAACGCGC
modifications: expressed or natural sequence
B14: RA075 (nucleic acid)
DNA: GCGCGTCCTGGATTCGCGGAAACGCGTACATCCAGCTGACGAGTCCCAAATAGGACGAAAGTGATACCAGCATCGTCTTGATGCCCTTGGCAGCACTACGCGC
modifications: expressed or natural sequence
B15: RA076 (nucleic acid)
DNA: GCGCGTCCTGGATTCGCGGGAGAATACCAGCATCGTCTTGATGCCCTTGGAAGTCTCAAACGCGTACATCCAGCTGACGAGTCCCAAATAGGACGAAACGCGC
modifications: expressed or natural sequence
B16: RA077 (nucleic acid)
DNA: GCGCGTCCAGTGATACCAGCATCGTCTTGATGCCCTTGGCAGCACTTGGATTCGCGGAAACGCGTACATCCAGCTGACGAGTCCCAAATAGGACGAAACGCGC
modifications: expressed or natural sequence
B17: RA007 (nucleic acid)
DNA: GCGCGTCCTGGATTCGCGGAAACGCGTACATCCAGCTGACGAGTCCCAAATAGGACGAAACGCGAGAATACCAGCATCGTCTTGATGCCCTTGGAAGTCTCGCGC
modifications: expressed or natural sequence
B18: RA078 (nucleic acid)
DNA: GCGCGTCCTGGATTCGCGGAAACGCGTACATCCAGCTGACGAGTCCCAAATAGGACGAAACGCCGAGAATACCAGCATCGTCTTGATGCCCTTGGAAGTCTCGGC
modifications: expressed or natural sequence
B19: RA079 (nucleic acid)
DNA: GCGCGTCCTGGATTCGCGGAAACGCGTACATCCAGCGAGAATACCAGCATCGTCTTGATGCCCTTGGAAGTCTCGCTGACGAGTCCCAAATAGGACGAAACGCGC
modifications: expressed or natural sequence
B20: RA080 (nucleic acid)
DNA: GCGCGTCCTGGATTCGGAGAATACCAGCATCGTCTTGATGCCCTTGGAAGTCTCCGGAAACGCGTACATCCAGCTGACGAGTCCCAAATAGGACGAAACGCGC
modifications: expressed or natural sequence
B21: RA081 (nucleic acid)
DNA: GCGCGTCCTGGATTCGCGGAAACGCGTACATCCAGCTGACGAGTCCCAAGGAATACCAGCATCGTCTTGATGCCCTTGGAAGTCCATAGGACGAAACGCGC
modifications: expressed or natural sequence
B22: RA082 (nucleic acid)
DNA: GCGCGTCCTGGATTCGAGAATACCAGCATCGTCTTGATGCCCTTGGAAGTCTCGGAAACGCGTACATCCAGCTGACGAGTCCCAAATAGGACGAAACGCGC
modifications: expressed or natural sequence
B23: RA083 (nucleic acid)
DNA: GCGCGTCCGGAATACCAGCATCGTCTTGATGCCCTTGGAAGTCCTGGATTCGCGGAAACGCGTACATCCAGCTGACGAGTCCCAAATAGGACGAAACGCGC
modifications: expressed or natural sequence
B24: RA084 (nucleic acid)
DNA: GCGCGTCCTGGAGAGAATACCAGCATCGTCTTGATGCCCTTGGAAGTCTCTTCGCGGAAACGCGTACATCCAGCTGACGAGTCCCAAATAGGACGAAACGCGC
modifications: expressed or natural sequence
B25: RA085 (nucleic acid)
DNA: GCGCGTCCTGGATTCGCGGAAACGCGTACATCCAGAATACCAGCATCGTCTTGATGCCCTTGGAAGTCTAGCTGACGAGTCCCAAATAGGACGAAACGCGC
modifications: expressed or natural sequence
B26: RA086 (nucleic acid)
DNA: GCGCGTCCTGGATTCGCGGAAACGCGGAATACCAGCATCGTCTTGATGCCCTTGGAAGTCCGCGTACATCCAGCTGACGAGTCCCAAATAGGACGAAACGCGC
modifications: expressed or natural sequence
B27: RA087 (nucleic acid)
DNA: GCGCGTCCTGGATTCGCGGAAACGCGTACATCCAGCTGACGAGCGAGAATACCAGCATCGTCTTGATGCCCTTGGAAGTCTCGTCCCAAATAGGACGAAACGCGC
modifications: expressed or natural sequence
B28: RA008 (nucleic acid)
DNA: GCGCGTCCTGGATTCGCGGAAACGGAATACCAGCATCGTCTTGATGCCCTTGGAAGTCCGCGCGTACATCCAGCTGACGAGTCCCAAATAGGACGAAACGCGC
modifications: expressed or natural sequence
B29: RA088 (nucleic acid)
DNA: GCGCGTCCTGGATTCGCGGAAACGCGTACATCCCGAGAATACCAGCATCGTCTTGATGCCCTTGGAAGTCTCGAGCTGACGAGTCCCAAATAGGACGAAACGCGC
modifications: expressed or natural sequence

These molecules were tested on Renilla luciferase RNA (assay: Barcoded aptazyme variant library screen: un-cleaved Renilla luciferase RNA by barcode read counts, HEK293-T cells). Details: un-cleaved Renilla luciferase RNA, HEK293-T cells cultured with 1 mM theophylline (ON) over without theophylline (OFF); barcode read counts, triplicate.
Assay type: cell-based
Outline: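 Barcode sequencing of cDNA versus DNA, normalized per aptazyme, gave the un-cleaved Renilla luciferase RNA fraction and fold-change with versus without theophylline (triplicates). Library: T3H48 ribozyme with one of seven theophylline aptamer variants inserted at each position, placed in the Renilla 3′ UTR of a dual-luciferase vector.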

Molecule | Fold change in RNA expression between the ON state and the OFF state
B1 | 1.9 fold
B2 | 1.9 fold
B3 | 1.9 fold
B4 | 1.9 fold
B5 | 1.8 fold
B6 | 5.0 fold
B7 | 1.8 fold
B8 | 1.8 fold
B9 | 1.8 fold
B10 | 1.8 fold
B11 | 1.8 fold
B12 | 1.8 fold
B13 | 1.8 fold
B14 | 1.8 fold
B15 | 1.8 fold
B16 | 1.8 fold
B17 | 4.5 fold
B18 | 1.8 fold
B19 | 1.8 fold
B20 | 1.7 fold
B21 | 1.7 fold
B22 | 1.7 fold
B23 | 1.7 fold
B24 | 1.7 fold
B25 | 1.7 fold
B26 | 1.7 fold
B27 | 1.7 fold
B28 | 4.2 fold
B29 | 1.7 fold
